Laboratory results published in the DeepSol protein solubility set.

Assay: soluble on expression in E. coli; label from the status in PepcDB or PDB records

Sequence | soluble on expression in E. coli
MKILILGGRFGGLQTAYDLRRYLKNKADIKIIEKNRYIYFRPALPHVGIGLERAEDLRIDLAQVLPDRGIGYIQGTVTKIDPERSLVEYSREGSGGYKEKYDFLVIALGAHLASELIAGFDKYGSSVCEADLAENMWKKLRDFKGGNITLGSAKFIQDTKNRPTNTPDRYAPIADSACEGPVFEMSIMLYDYFKARNMLDKVKMTVYSPGEYLSDLSRTSRSTVAAMYKGMNIELVDNFVVKEVTEKEVISEDGRRLPSDISFILPPYTGQKLVKDAGLGDDVGFVLTGTDMKSVKYDNVYAVGDVNALIVPKMAFLAVKTARIVAANIANRLGMSIPVEVYDPKIVCVADSPYGNYAVAVTDSTFYGGNVSEAIPSPANHLKKTLFTRYFLWSKGDLAMDKYLTSWLEHHHHHH | not soluble
MSVPPGSIIVSDWHRCPDSREFFSKILHKKRRRKFGKTGVGKSALAARLAGLDLPKMHYETTGIETTVVFWPVRLKESGRVLFFRFELWDCGESAMRRFDHMLLSCKEKVDAILFLFSFTDRGSFDDLTNQISRITEPSDRVVKLVVGTKRDGERRDTFSGGVGSSGFPCGR | not soluble
MSLSIADNLKQVLAELPQGVRLVAVSKFHPNEAIEEAYQAGQRIFGESKVQEMTAKYETLPKDIEWHFIGHLQTNKIKYMIPYVEMIHGIDTYKLLAEVNKQAAKAGRIVNCLIQIHVAQEETKFGFSPEECKDMLHAGEWKELSHIRICGLMGMASNTDDVEQINREFCLLNRLFQEIKANWFADSDTFRELSMGMSHDYHEAIAAGSTLVRVGSKIFGERNYNTEGHHHHHH | soluble
MSLNQLFCHPETITIKKAVYYDIAPIPLPTPFKDGTGGVRHASFFKGWMKIYDEDGFCGQGPAGPLMTDFFLPRMLNAPGKSNGEWMEYFWWEIRNFGYQSPYIPEMTNLDWLLLDLLANRAGLPLHRFLGADRDWACVYKGGGSVLLSDEALISDLQRFKDEGYKTTKFKIGGSGPDFSQDIRRLEKARQALGDGFGIAVDANQAWDAKTAFAFAKEAAPLGVAWLEEPVHAYDMDALRELRDLLDEAGIAMEIAMGESVRSYHTHVAYAEHGVDHLQPARLYCIAENMRVREYARRHGCRISTGGFTFQNAALGALYSEDELLEYHQPLNEVLVPYFSLVSEMKDGRFYLPDVPGLPVHLDFERLERDGLLRGIQFYYHKEGHHHHHH | soluble
MGSDKIHHHHHHMDYLDIGQAADNKYYSSKRTLPLAIMKENAKEYQPLKINTIKTCSCKENNLNCLTAKEWIKRQIGVWEFYYEKRDIRDKTVHPATFPISLAKQVIELFSHEGELVVDPFVGSGTTLVAARDSNRNAVGFDLQEKYIKLCAERLSTQRIVGNAQQVAIEEDARNISNYFNEESISLIFTSPPYANLLNRERKNKSRRNRKNNQLGKVEQYSQDPRDLGTLDVESYTKEMGDIFEKVKPALRTKGHCVINVPDMWWENKRIAIHVYLINEMTKRGYELRNIIIWDKRNLVNQIGIFGWPSNYITMGVTFEYLLDFWKP | not soluble
MSRRVEFDLSTEDHSDRRRTNTFSSDEDGVPNEVADYLVYFSRMVDEQNVPEILTLYDQAFPDLTERFFRDRMWPDENVVERIIGPGNKLFIILYKELYYRQLYARNTRGPLLVHRYESFMNYQELFSELLSSKDPIPLSLPNVWLWDIIDEFVYQFQAFCLYKANPGKRNADEVEDLINIEENQNAWNIYPVLNILYSLLSKSQIVEQLKALKEKRNPDSVADEFGQSDLYFKLGYFALIGLLRTHVLLGDYHQALKTVQYVDIDPKGIYNTVPTCLVTLHYFVGFSHLMMRNYGEATKMFVNCLLYIQRTKSVQNQQPSKKNFQYDVIGKTWDQLFHLLAICLAIQPQRIDESIASQLSERCGERMMHMANGNIDEFRNAFATGCPKFLSPTTVVYEGVNQSKEPLLRQTQSFLEGIESQMALPVLRGYLKLYTTLPTKKLASFMDVDDEHYDSFIGKLLTYKMIVNELGKEAGPSSADDDEPQTDIDFYVDRDMINIADTKVARHVGEHFIRHIQKLQEVQDVLKRLDIQKP | not soluble
MGSDKIHHHHHHVSQPTSSLVGKSRASIYRDLVLSAQGVRFGKTAGKDVDVIKYLFALLILLAFSAKGYHPKEAHEPLTTLAVDAMAQCGINLSESTRLQLMQGNLAMDEGAGKLPKELMNTSFAKAVFPMTKRIHNWHFYHPDKTADAQRLAGKTDMSMARLWQAAQAGLEQAPAEHKAYYLGAIIHLIQDVTVPAHAVPVYHGPKIIAWQREFAPLVNYLGFGFRGIFVIHDPVDDWPVNSTGAEQPIAAIPCPELHAASSNLSANFDALRTRVARQTLTALDNPIPGCAAPWRLFWREDLGHRYFAGYTQGIKPFGRANSLSGEGISIDGRPCEPDYQGFVETRHRAAIEATMAALQLSQLGVVSPVPTEAQ | not soluble
MAHHHHHHMSVPSLRRSDRSGDPTRDRVHYVRAQRQHLVRETRMLQMALEELQEEAERENTEEALMRRGIDTTHRELLRCLLHLALAEQDSTRGAAAASGAQAQYDETSAIICEVLRRYKHEQDAFTQEAKQRLESIREEARQACMNVGDTLAVPQGEHAHSSGVGSVVEATDCDSLRSALEALREMQAEVDEETEATLLSIGRTLFC | not soluble
MSLRTYLPGESEEVLSEGWTLTLTPADACETPSDIPASLESLHVSVPGTVGQALEAAGKFDRLAPVALNDRDAWYRLTMISDARERAILRFDGLSTIAEIFFNGELIAASQSMFERLEVPVQMTGADELSICFRALAPRLEKPGPRARWRPQMMNTQGLRLIRTTALGYMPGWCPEIHSAGPWRPISLIKQDGVLCTLRSSLDDTGTGKVSIVLQANRDIQSARLICAGYSINLSKAEDGKLLGELIIPGVEIWWPHTHGRPALHEVVLELDGNQHRLGRTGFRQVEIDHGEDGNGFGLKVNGQPVFCRGAVWTTADIVRLPGTRPDYEPWLKKAAEAGMNMIRVGGTMAYETPEFFALCDELGIMVWQDAMLANFDYPAKDDGLRQHIVMEIEQLLESTALSPSFAIFCGGSEMYQQGAMLGLPEQIWKGTLTEEILPELVAEKRPDAAYVANSPSGGALPFFPNAGVGHYYGVGAYCRPLEDARRADLRFAAECLAFANIPEQETLDRYLPGVAVHDPRWKARTPRDRGASWDFEDVRDHYLKLLYEAEPDVLRREDGALYLDMSRAATAEVMEATFAEWRRSGSSCQGALVWTLQDLVPGAGWGIIDAAGRPKSVWHALKRAFRPVQVSLSDEGTNGLDIHILNDTGDSLNTMLELTCLREGLQPVVHAKRPLALLPRESQTIAATDLFGAFFDTTYAYRFGPPSHDVTIARLRDIATGHVIADAFHFPLGRKKALHAANLQVAISETNGHWSLEIGTDRLAQSVHITAEGYRACESWFHLGPGEARKIGLLPETATTEAPPSGEVVSLGSSRRFSEGHHHHHH | not soluble
MWYHRLSHLHSRLQDLLKGGVIYPALPQPNFKSLLPLAVHWHHTASKSLTCAWQQHEDHFELKYANTVMRFDYVWLRDHCRSASCYNSKTHQRSLDTASVDLCIKPKTIRLDETTLFFTWPDGHVTKYDLNWLVKNSYEGQKQKVIQPRILWNAEIYQQAQVPSVDCQSFLETNEGLKKFLQNFLLYGIAFVENVPPTQEHTEKLAERISLIRETIYGRMWYFTSDFSRGDTAYTKLALDRHTDTTYFQEPCGIQVFHCLKHEGTGGRTLLVDGFYAAEQVLQKAPEEFELLSKVPLKHEYIEDVGECHNHMIGIGPVLNIYPWNKELYLIRLFKEKQNTVNRQWNSSLQCDIPERILTYRHFVSGTSIEHRGSLI | not soluble
MLERTQVFVDTSYLLASFYNSWETGARAQLEIDLPEVVGVLGRMIEQQLKQPVQRQMWYDGIPDSGPHRYQRALRTCDGVQLRAGQLIEWGERRTQKAVDTRLVADLVLAGVRGQCSDIVLVSGDADMIPGVQEAANAGLRVHLYGFGWDSMSSQLRHCCDTTTILDPRED | not soluble
MFLQHNNQLICNLEKMGLTENEAKAYVGLVSLGEATAREVHELTNVPRAKIYEVLKVLAKRGYLEVRQGSPTYFRAVDPKQVIGKIKDEFINCAIETLDQLNELSYELPRTSPVWCIQSEWGIKNRIREILNGVKEELIVFSSSPRFFQEFEAELKKLEKTCQLTFIISEPEKFESFPFEFRETTKEFREFLNNIVIDGIRYDEEFFMIADGKESIGVHSAGDKREAVVIKLPVVCYLQKMIYDRVLEPSFVKKNRKSA | not soluble
MRKMKTERAKEILVQLLKIPSPSGREDRVALYIMEFLHKLNYDVHIESDGEIIDLVVNPGAELFFEVHMDTIDPRAEPFVRGNIVYGTGASDIKGGIASILLMLEQLRKEGKDLNVGIVFVSDEEKGGRGSALFMERYRPKMAVVLEPTDLEVHIAHAGNIEAYFEVDGKEAHGACPESGINAIEQTFEMLQKLKDLEPFKAKGKYFDPHIGIQELICENPYYLIPALCKGRLEARLLPDQEVEDILDLIDPILDEYTVKYEYTEIWDGYELSEDEEIVQIAKSAMDMVGLDEFGAMRSWTDAINFTYNGTKTIVFGPGNLDISHTKQERIDVRDVVKASEFLLAVNEIFGNKS | soluble
MAHHHHHHMDVKEYTHNIIDIDISNHIKIRSSNNYNNKKLKETIRQNAKKIRDITFKYWIKEKQLQSGNFVINDENINDKMIIENKKDIINNINNDKKISYSYVDSFQTCVTNSKDEEGVLYIDDLYTYLIRQLYILFCSLEVRKKKNNVQFDFTRIYKYTYNYKKLESHISYEYLKKYDINDDIIKNDIENFHFYAYDHNIEDPKKYCDMEENYNNANYNICIYLPTKKEIDILFIIDQLYDYFYFVLYVPITTKEKDLIFFPFNIKNNLLVQYHFNIFIPYDYIYYTTYKKMNNFILNYSKIVKNYELSNSLYKHNDTIILIPLIAYNKLGYRIGSGKGYYDKTLTKTRKKNDIIKQIKNIQMNDNIITNNKDHDIQKENHLYLGTKNDTNNIICSNVKNIKHKTFNNEIEIYTQNKQKIYFNEIKIGVSFEMFLYDIDFSETTDLILDYMINENNIYHFIL | not soluble
MASEPIQITPNLAIPPGEIVERFVRASGAGGQNVNKVSTAVELRFDVAGSPSLPEPLRARLLSRRDRRMTADGVLVIDAQRFRTQDRNREDARERLAEIINACLSVPKRRVATKPSHGAKLRRLDAKRERSQIKRGRSASHWELEHHHHHH | soluble
MGSDKIHHHHHHAPSEAQQFTEFWTPGKPNPSICKSPLLVSTPLGLPRCLQASNVVKRLQKLEDIASLNDGNRAAATPGYQASVDYVKQTLQKAGYKVSVQPFPFTAYYPKGPGSLSATVPQPVTYEWEKDFTYLSQTEAGDVTAKVVPVDLSLGAGNTSTSGCEAEDFANFPAGSIALIQRGTCNFEQKAENAAAAGAAGVIIFNQGNTDDRKGLENVTVGESYEGGIPVIFATYDNGVAWSQTPDLQLHLVVDVVRKKTETYNVVAETRRGNPNNVVMVGAHLDSVFEGPGINDNGSGSAAQLEMAVLLAKALPVNKVRFAWWGAEEAGLVGSTHYVQNLAPEEKKKIKAYLNFDMIGSPNFGNFIYDGDGSDFGLQGPPGSAAIERLFEAYFRLRGQQSEGTEIDFRSDYAEFFNSGIAFGGLFTGAEGLKTEEQAQKYGGTAGKAYDECYHSKCDGIANINQDALEIHSDAMAFVTSWLSLSTKVVDDEIAAAGQKAQSRSLQMQKSASQIERWGHDFIK | not soluble
